Results on one substance are retold here after US10053716B2, “4-amino cinnamic acid production method using enzyme” (JAPAN SCIENCE AND TECHNOLOGY AGENCY, priority 2014, dated 2018).

By Km is commonly meant the concentration of substrate that gives half-maximal velocity.

Common to all, as to assay type: biochemical
A short description of series [1]: Km and kcat of recombinant purified enzyme for phenylalanine. The note with it: purified His-tag enzyme. The protocol: (§1) [Measurement of Enzyme Activity of Escherichia coli Recombinant Purified Enzyme]
(§2) Escherichia coli was inoculated into 5 ml of LB medium containing 100 mg/L ampicillin sodium or 100 mg/L kanamycin sulfate, and cultured overnight at 37° C. It was then used to inoculate 200 ml of the same culture medium and cultured to an O.D of 0.6, IPTG was added to a final concentration of 0.5 mM, and the incubation was continued for 12 hours at 28° C. The rotational speed during cultures was 120 rpm. The cultured cells were collected and suspended in 20 mM potassium phosphate buffer (pH 7.5) and subjected to ultrasonic disruption, and after centrifugal separation, the supernatant was purified using a His-Trap column and the enzyme activity was measured. The method of measuring the enzyme activity was according to the method for the crude extract described above.
(§3) Since pET28AtPAL4 and its mutants and RgPAL were produced as fusion proteins with His-tag in the Escherichia coli of Example 3, these enzymes could be easily purified using an affinity column. After culturing the producing cells, the cells were collected, disrupted and purified. The purified enzymes were used to calculate the Km values and kcat values.

Series [2] in a line: PAL activity of Escherichia coli recombinant enzyme crude extract. The note with it: crude extract, NST37(DE) host, 20 mM phenylalanine. The protocol: (§4) [Measurement of Enzyme Activity of Escherichia coli Recombinant Enzyme Crude Extract]
(§5) Escherichia coli was inoculated into 5 ml of LB medium containing 100 mg/L ampicillin sodium or 100 mg/L kanamycin sulfate, and cultured overnight at 37° C. It was then inoculated into 200 ml of the same culture medium and cultured to an O.D. of 0.6, isopropyl-β-thiogalactopyranoside (IPTG) was added to a final concentration of 0.5 mM, and culturing was conducted for 12 hours at 28° C.
(§6) The cultured cells were collected and suspended in 20 mM potassium phosphate buffer (pH 7.5) and subjected to ultrasonic disruption and the supernatant was used as a crude extract for activity measurement. The enzyme activity was measured and quantified by measuring the absorbance at the absorption wavelength of the reaction product using a spectrophotometer, for a period of 5 minutes. For PAL activity, the crude extract was added to 100 mM Tris Buffer (pH 8.0) and 20 mM phenylalanine, reaction was conducted, and production of cinnamic acid was measured by the change in absorbance at a wavelength of 290 nm, while for 4APAL activity, 20 mM 4-aminophenylalanine was used as substrate and the absorbance at a wavelength of 315 nm due to 4-aminocinnamic acid was measured and quantified.

Series [3] in a line: 4APAL activity of Escherichia coli recombinant enzyme crude extract. The note with it: crude extract, NST37(DE) host, 20 mM 4-aminophenylalanine. The protocol:
as §4, §5, §6

Series [4] in a line: Km and kcat of recombinant purified enzyme for 4-aminophenylalanine. To be noted: purified His-tag enzyme. The protocol: as §1, §2, §3

Consider “AtPAL4: PAL derived from the plant Arabidopsis thaliana, amino acid sequence SEQ ID NO: 4”, for which the “Kcat value, Phenylalanine” value in series [1] worked out at 5.1 s⁻¹. Moreover, the PAL activity in series [2] was 0.18 µmol/min/mg. The 4APAL activity in series [3] amounted to 0.012 µmol/min/mg. In series [4], the “Kcat value, 4-Aminophenylalanine” value was above 0.40 s⁻¹ and the Km was above 40 mM.
